Assay results published in article PMC8699518 (Biomolecules, 2021).

Key:
[1] = biological target: T1, recombinant glycosylated IFN-β (Pharmapark, Moscow, Russia) (Homo sapiens, UniProt P01574, glycosylated); assay: ELISA; Kd by the method of Friguet with the Klotz equation; murine antibody and IFN-β in solution at equilibrium, free antibody measured by ELISA
T1 construct: human interferon beta, glycosylated form (IFN-β-1a); also called IFN-β-1a; IFNβ-1a; source: bought: Pharmapark

[2] = biological target: T2, E. coli-HuIFN-γ (Homo sapiens, UniProt P01579); assay: ELISA; indirect ELISA of the hybridoma panel; antigens adsorbed overnight at 4 °C in PBS pH 7.2 at 2 μg/mL, 50 μL/well; anti-mouse immunoglobulin-HRP, OD450
T2 construct: human interferon gamma expressed in E. coli; source: expressed in E. coli
T2 sequence (P01579 24-161): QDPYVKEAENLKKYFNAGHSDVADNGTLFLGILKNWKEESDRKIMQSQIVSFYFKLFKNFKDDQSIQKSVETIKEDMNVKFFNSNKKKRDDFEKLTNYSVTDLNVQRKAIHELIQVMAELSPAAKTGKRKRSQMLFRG

T1 sequence (P01574 22-187): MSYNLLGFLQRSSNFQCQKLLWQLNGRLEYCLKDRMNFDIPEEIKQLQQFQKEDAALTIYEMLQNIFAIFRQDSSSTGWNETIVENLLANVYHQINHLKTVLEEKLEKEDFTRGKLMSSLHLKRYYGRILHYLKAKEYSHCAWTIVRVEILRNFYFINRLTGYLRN

Kd [1]: 3.8 nM
binding result [2]: no binding
B1: murine monoclonal antibody B16 against IFN-β (antibody, V domains shown)
VH: EVKLVESGGGLVQPGGSLKLSCAASGFTFTSYTMSWVRQTPEKRLEWVAYISNGGGSTYYPDTVKGRFTISRDNAKNTLYLQMSSLKSEDTAMYYCARLDWVFAYWGQGTLVTVSA
VL: DIVMTQSHKFMSTSVGDRVSITCKASQDVGTAVAWYQQKPGQSPKLLIYWASTRHTGVPDRFTGSGSGTDFTLTISNVQSEDLADYFCLQYSSFPYTFGGGTKLEIK
notes: VH of murine B16; mouse IgG heavy-chain constant region; VL of murine B16; mouse kappa light-chain constant domain (all L-chains of the panel were of the kappa isotype); Member of the hybridoma panel B1-B21; also called murB16; prototype mouse antibody; source: hybridoma B16
